Test results: US20220412975A1, “CHARACTERIZING MODULATORS OF ADAMTS-7 AND ADAMTS-12” (The Broad Institute, Inc., priority 2019, published 2022)
*: point of attachment. HiLyteFluor‑488 = fluorophore label at the N-terminus; donor fluorophore = not defined here; K(Quencher) = not defined here; K(quencher) = not defined here; Donor = not defined here; Acm = CC(=O)NC*

Columns and labels:
Assay type in all cases: biochemical
[1] = target: T1, rPro-hCD ADAMTS-7 (SEQ ID NO: 1) (Homo sapiens, UniProt Q9UKP4, A119V/A123T/A127T/A171V/A193G/A200T/A28V/A36P/A42G/A66V/A78S/A97T/D77A/DEL186-188/DEL228-233/E133D/E190K/E213K/E83Q/G114S/G115N/G117S/G196D/G27H/H100Y/H124S/H234Q/K153R/L143F/L192S/L20I/P189H/P201S/P29L/P33S/P79S/Q99P/R118N/R122Q/R174Q/R195Q/R215Q/R218H/R35L/R75A/R76Q/R87Q/R92L/S170E/S199R/S202G/S214H/T110I/T125V/V182M/V208G/V74A/W225K/Y209S); assay: FRET peptide substrate cleavage by rPro-hCD (SEQ ID NO: 1); conditions: for kcat, Enzyme SEQ ID NO: 1: rPro-hCD: approx. 100 nM enzyme, 10 μM peptide substrate; for cleavage activity with ADAMTS-7 human catalytic domain constructs (in words): rPro-hCD (SEQ ID NO: 1) and FM2 (SEQ ID NO: 2) constructs; for activity profile of modified S1 substrates (in words): S1 peptide with additional hydrophilic moiety, data not shown
T1 construct: rat ADAMTS-7 signal peptide + prodomain (rat 1-217), fusion partner (N); 2xStrep tag (C); 6xHis tag (C); made in house; host or cells: Expi293 cells
Method: (§1) Purified recombinant ADAMTS-7 (as of SEQ ID NO: 1 or SEQ ID NO: 2) and purified recombinant rADAMTS-7 (rat ADAMTS-7 residues 1-575 with a carboxyl terminal Flag, SEQ ID NO: 3) were used to identify substrates from the TSP1 and COMP candidate peptides. ADAMTS-7 was diluted in reaction buffer (20 mM HEPES pH 8.0, 150 mM NaCl, 5 mM CaCl2, 0.004% Brij, 10 μM ZnCl2) for a concentration of approximately 100 nM and pre-incubated for 2 hr at room temperature prior to reaction start with 10 μM candidate peptide substrates. There were some differences between optimized buffer data and reported 2 mM Zn^2+ buffer data (Liu 2006 FASEB J); for example, the published amount of Zinc in assay buffer caused the purified ADAMTS-7 proteins to precipitate. Candidate FRET substrates based on SEQ ID NO: 4 to 10 were generated through custom synthesis by Anaspec—AnaSpec, EGT (34801 Campus Drive, Fremont, Calif. 94555, USA); as explained by the manufacturer; AnaSpec, EGT Group's pH insensitive HiLyte™ Fluor dyes are a series of fluorescent labeling dyes with fluorescence emissions that span the full visible and near infrared spectrum. HiLyte™ Fluor dyes and AnaSpec's proprietary quenchers QXL™ have been used as fluorophore and quencher pairs for fluorescence resonance energy transfer (FRET) in our Examples in the reaction buffer.
(§2) The TSP substrate sequences indicate the cleavage site (underlined) between glutamate and leucine as determined by mass spectrometry. COMP substrate cleavage products were below the detection limit of the mass spectrometer.

rADAMTS7 (1-575) = target: T2, rADAMTS7 (1-575) (Rattus norvegicus, UniProt Q1EHB3); assay: FRET peptide substrate cleavage by rADAMTS7 (1-575) (SEQ ID NO: 3); conditions: approx. 100 nM enzyme, 10 μM peptide substrate
T2 construct: Flag (C); made in house; host or cells: Expi293 cells
T2 sequence (Q1EHB3 with tags, fused parts or gaps): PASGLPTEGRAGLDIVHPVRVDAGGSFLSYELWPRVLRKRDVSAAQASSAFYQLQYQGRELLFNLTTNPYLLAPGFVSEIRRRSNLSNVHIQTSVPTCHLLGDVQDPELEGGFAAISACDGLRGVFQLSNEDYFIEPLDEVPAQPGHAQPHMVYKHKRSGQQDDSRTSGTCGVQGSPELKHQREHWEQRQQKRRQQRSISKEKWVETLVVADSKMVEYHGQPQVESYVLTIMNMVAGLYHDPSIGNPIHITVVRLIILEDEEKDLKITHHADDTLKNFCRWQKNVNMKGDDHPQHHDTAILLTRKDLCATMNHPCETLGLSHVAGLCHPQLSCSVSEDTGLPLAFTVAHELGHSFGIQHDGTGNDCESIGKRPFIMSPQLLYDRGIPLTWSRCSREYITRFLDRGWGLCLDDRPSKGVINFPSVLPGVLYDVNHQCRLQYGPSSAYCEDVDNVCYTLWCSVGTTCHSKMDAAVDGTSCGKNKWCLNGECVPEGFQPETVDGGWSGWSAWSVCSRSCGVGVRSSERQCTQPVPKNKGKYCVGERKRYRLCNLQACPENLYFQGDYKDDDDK
Method: as §1, §2

[2] = target: T3, rPro-hCD-FM2 ADAMTS-7 (SEQ ID NO: 2) (Homo sapiens, UniProt Q9UKP4, A119V/A123T/A127T/A171V/A193G/A200T/A28V/A36P/A42G/A66V/A78S/A97T/D77A/DEL186-188/DEL228-233/E133D/E190K/E213K/E83Q/G114S/G115N/G117S/G196D/G27H/H100Y/H124S/H234Q/K153R/L143F/L192S/L20I/P189H/P201S/P29L/P33S/P79S/Q235K/Q99P/R118N/R122Q/R174Q/R195Q/R215Q/R218H/R35L/R75A/R76Q/R87Q/R92L/S170E/S199R/S202G/S214H/T110I/T125V/V182M/V208G/V74A/W225K/Y209S); assay: FRET peptide substrate cleavage by rPro-hCD-FM2 (SEQ ID NO: 2); conditions: approx. 100 nM enzyme, 10 μM peptide substrate
T3 construct: rat ADAMTS-7 signal peptide + prodomain (rat 1-217, Q216K), fusion partner (N); 2xStrep tag (C); 6xHis tag (C); made in house; host or cells: Expi293 cells
Method: as §1, §2

T1 sequence (Q9UKP4 with tags, fused parts or gaps with the stated changes): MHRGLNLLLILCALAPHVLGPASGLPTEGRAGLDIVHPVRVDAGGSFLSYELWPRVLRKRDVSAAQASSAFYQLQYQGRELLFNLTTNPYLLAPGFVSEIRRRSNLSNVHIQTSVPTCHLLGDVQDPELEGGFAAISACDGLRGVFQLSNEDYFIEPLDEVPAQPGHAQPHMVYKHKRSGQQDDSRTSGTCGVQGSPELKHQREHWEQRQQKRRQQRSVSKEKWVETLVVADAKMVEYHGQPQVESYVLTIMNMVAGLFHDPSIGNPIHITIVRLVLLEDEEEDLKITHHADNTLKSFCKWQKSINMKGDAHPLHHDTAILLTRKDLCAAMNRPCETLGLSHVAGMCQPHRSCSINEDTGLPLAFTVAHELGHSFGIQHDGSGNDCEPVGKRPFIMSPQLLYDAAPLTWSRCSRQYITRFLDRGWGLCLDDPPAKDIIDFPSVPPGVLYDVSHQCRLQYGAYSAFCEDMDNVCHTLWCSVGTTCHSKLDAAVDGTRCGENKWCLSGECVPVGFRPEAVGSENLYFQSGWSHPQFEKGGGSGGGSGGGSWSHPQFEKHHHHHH
T3 sequence (Q9UKP4 with tags, fused parts or gaps with the stated changes): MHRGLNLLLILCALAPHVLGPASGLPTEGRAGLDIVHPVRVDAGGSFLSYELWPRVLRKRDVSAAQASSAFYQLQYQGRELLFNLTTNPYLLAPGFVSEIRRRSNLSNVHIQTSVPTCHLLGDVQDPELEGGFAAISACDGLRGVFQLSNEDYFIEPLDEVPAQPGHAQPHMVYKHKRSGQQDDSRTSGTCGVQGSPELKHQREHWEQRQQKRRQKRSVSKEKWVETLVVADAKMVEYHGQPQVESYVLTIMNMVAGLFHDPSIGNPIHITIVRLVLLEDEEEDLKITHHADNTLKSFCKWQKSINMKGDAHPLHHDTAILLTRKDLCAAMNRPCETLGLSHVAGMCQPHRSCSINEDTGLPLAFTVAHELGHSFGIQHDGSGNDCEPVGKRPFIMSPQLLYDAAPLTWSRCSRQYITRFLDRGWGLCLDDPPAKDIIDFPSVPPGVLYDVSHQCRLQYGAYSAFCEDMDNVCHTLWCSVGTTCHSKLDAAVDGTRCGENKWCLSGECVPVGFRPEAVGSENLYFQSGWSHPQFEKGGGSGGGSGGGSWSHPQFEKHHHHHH

With “(Donor) GMQQSVRTGLPS (K-Quencher) ({donor fluorophore}-GMQQSVRTGLPS-{K(quencher)}; reading uncertain; also: donor fluorophore and quencher not given here, printed as (Donor) GMQQSVRTGLPS (K-Quencher)) [COMP1, FRET candidate peptide, COMP amino acids 73-84]” the “kcat, Enzyme SEQ ID NO: 1: rPro-hCD” value [1] was 1.22e-05 s⁻¹, the “cleavage activity with ADAMTS-7 human catalytic domain constructs (in words)” value (shortened to “cleavage activity”) [1] was “No activity” and the “kcat, Enzyme SEQ ID NO: 3: rADAMTS7 (1-575)” value (rADAMTS7 (1-575)) was 8.17e-06 s⁻¹. For the same substance, the “kcat, Enzyme SEQ ID NO: 2: rPro-hCD-FM2” value [2] was 1.27e-05 s⁻¹.

“(Donor) SPGFRCEACPPGYS (K-Quencher) (Donor-SPGFRC(Acm)EAC(Acm)PPGYS-{K(Quencher)}; reading uncertain; also: printed as (Donor) SPGFRCEACPPGYS (K-Quencher)) [COMP2, FRET candidate peptide, COMP amino acids 146-159, Acm modified cysteines]” was tested, and the “kcat, Enzyme SEQ ID NO: 1: rPro-hCD” value [1] was 6.33e-06 s⁻¹, the “cleavage activity” value [1] was “No activity” and the “kcat, Enzyme SEQ ID NO: 3: rADAMTS7 (1-575)” value (rADAMTS7 (1-575)) was 8.33e-06 s⁻¹. For the same substance, the “kcat, Enzyme SEQ ID NO: 2: rPro-hCD-FM2” value [2] was 6.5e-06 s⁻¹.

For “(HiLyteFluor-488)-DELSSMVLELRGLRT-K(QXL520)-E-NH2 ({HiLyteFluor‑488}-DELSSMVLELRGLRTK(QXL520)E-NH2) [SEQ ID NO: 11, S1 peptide substrate with additional carboxyl glutamic acid after the quencher]”, the “activity profile of modified S1 substrates (in words)” value (“activity profile” for short) [1] was “not significantly affected”.

“(HiLyteFluor-488)-DELSSMVLELRGLRT-K(QXL520)-K-NH2 ({HiLyteFluor‑488}-DELSSMVLELRGLRTK(QXL520)K-NH2) [SEQ ID NO: 12, S1 peptide substrate with additional lysine after the quencher]” was tested, and the “activity profile” value [1] was “not significantly affected”.

“(HiLyteFluor-488)-DELSSMVLELRGLRT-K(QXL520)-NH2 ({HiLyteFluor‑488}-DELSSMVLELRGLRTK(QXL520)-NH2) [TSP1-1, FRET peptide substrate for ADAMTS-7/12, TSP1 amino acids 275-289]” was tested, and the “kcat, Enzyme SEQ ID NO: 1: rPro-hCD” value [1] was 0.00035 s⁻¹, the “cleavage activity” value [1] was “greatest specificity” and the “kcat, Enzyme SEQ ID NO: 3: rADAMTS7 (1-575)” value (rADAMTS7 (1-575)) was 0.000167 s⁻¹. The “kcat, Enzyme SEQ ID NO: 2: rPro-hCD-FM2” value [2] was 0.0004 s⁻¹.

With “(HiLyteFluor-488)-DELSSMVLELRGLRT-K(QXL520)-OH ({HiLyteFluor‑488}-DELSSMVLELRGLRTK(QXL520)-OH) [SEQ ID NO: 13, S1 peptide substrate ending in -OH]” the “activity profile” value [1] was “not significantly affected”.

With “(HiLyteFluor-488)-EENKELANELRRPPL-K (QXL520)-NH2 ({HiLyteFluor‑488}-EENKELANELRRPPLK(QXL520)-NH2) [TSP1-4, FRET candidate peptide, TSP1 amino acids 303-317]” the “kcat, Enzyme SEQ ID NO: 1: rPro-hCD” value [1] was 3.33e-05 s⁻¹, the “cleavage activity” value [1] was “No significant activity” and the “kcat, Enzyme SEQ ID NO: 3: rADAMTS7 (1-575)” value (rADAMTS7 (1-575)) was 4.33e-05 s⁻¹. The “kcat, Enzyme SEQ ID NO: 2: rPro-hCD-FM2” value [2] was 3.5e-05 s⁻¹.

In the case of “(HiLyteFluor-488)-KVTEENKELANELRR-K (QXL520)-NH2 ({HiLyteFluor‑488}-KVTEENKELANELRRK(QXL520)-NH2) [TSP1-3, FRET candidate peptide, TSP1 amino acids 300-314]”, the “kcat, Enzyme SEQ ID NO: 1: rPro-hCD” value [1] is reported as 2e-05 s⁻¹, the “cleavage activity” value [1] is reported as “No significant activity” and the “kcat, Enzyme SEQ ID NO: 3: rADAMTS7 (1-575)” value (rADAMTS7 (1-575)) is reported as 2.33e-05 s⁻¹. The “kcat, Enzyme SEQ ID NO: 2: rPro-hCD-FM2” value [2] was 2e-05 s⁻¹.

“(HiLyteFluor-488)-SSMVLELRGLRT-K(QXL520)-NH2 ({HiLyteFluor‑488}-SSMVLELRGLRTK(QXL520)-NH2) [TSP1-5, FRET peptide substrate, TSP1 amino acids 278-289]” was tested, and the “kcat, Enzyme SEQ ID NO: 1: rPro-hCD” value [1] was 3.33e-05 s⁻¹, the “cleavage activity” value [1] was “Activity was observed” and the “kcat, Enzyme SEQ ID NO: 3: rADAMTS7 (1-575)” value (rADAMTS7 (1-575)) was 4.17e-05 s⁻¹. The “kcat, Enzyme SEQ ID NO: 2: rPro-hCD-FM2” value [2] was 3.5e-05 s⁻¹.

“(HiLyteFluor-488)-SSMVLELRGLRTIVT-K(QXL520)-NH2 ({HiLyteFluor‑488}-SSMVLELRGLRTIVTK(QXL520)-NH2) [TSP1-2, FRET peptide substrate, TSP1 amino acids 278-292]” was tested, and the “kcat, Enzyme SEQ ID NO: 1: rPro-hCD” value [1] was 5.33e-05 s⁻¹, the “cleavage activity” value [1] was “cleaved” and the “kcat, Enzyme SEQ ID NO: 3: rADAMTS7 (1-575)” value (rADAMTS7 (1-575)) was 0.000128 s⁻¹. The “kcat, Enzyme SEQ ID NO: 2: rPro-hCD-FM2” value [2] was 4.83e-05 s⁻¹.
